B1: Pistol ribozyme (parent)
chain: GGGUCGUUGUUCCAUAAUCGCGUGGAUAUGGCACGCAAGUUUCUACCGGGCACCGUAAAUGUCCGACUGGAGCCGUUCGGGCGGCUAUAAACAGACCUCAGGCCCGAAGCGUGGCGGCACCUGCCGCCGGUGGUAAAAAAGAUCGGAAGAGCACACGUCU

Variants of: B1
Experiment: aptazyme ON/OFF ratio, guanine; higher = stronger switching; co-transcriptional cleavage with and without guanine

Variant | aptazyme ON/OFF ratio
U7G U8A U11C | 2.05
U7G U8C G9A | 4.1
U7G U8C G9A U10G C12U C13A | 1.12
U7G U8C G9A U10G C12U C13U | 1.26
U7G U8C G9A U10G C12U C13G | 1.1
U7G U8A U11C C13G | 1.11
U7G U8A U11C C13A | 1.32
U7G U8A U11C C13U | 1.2
U7G U8C G9A U10C C12G C13A | 1.12
U7G U8C G9A U10C C12G C13G | 1.19
U7G U8C G9A U10C C12G C13U | 1.28
U7G U8A U10G U11C C12U C13U | 1.1
U7G U8A U10G U11C C12U C13A | 1.46
U7G U8A U10G U11C C12U C13G | 1.52
U7G U8C G9A U10A C12U C13U | 1.05
U7G U8C G9A U10A C12U C13G | 1.13
U7G U8C G9A U10A C12U C13A | 1.15
U7G U8C G9A U10A U11C C12U C13A | 1.14
U7G U8C G9A U10A U11C C12U C13G | 1.13
U7G U8C G9A U10A U11C C12U C13U | 1.16
U7G U8C G9A U10G U11A C12U C13A | 1.09
U7G U8C G9A U10G U11A C12U C13U | 1.13
U7G U8C G9A U10G U11A C12U C13G | 1.09
U7G U8C G9A U10A U11A C13A | 1.09

Variant | aptazyme ON/OFF ratio
U7G U8C G9A U10A U11A C13U | 1.21
U7G U8C G9A U10A U11A C13G | 1.04
U7G U8A U10G C13U | 1.29
U7G U8A U10G C13A | 1.3
U7G U8A U10G C13G | 1.32
U7G U8C G9A U10A U11G C12G C13G | 1.14
U7G U8C G9A U10A U11G C12G C13A | 1.08
U7G U8C G9A U10A U11G C12G C13U | 1.09
U7G U8C G9A U10G U11C C12U C13A | 1.12
U7G U8C G9A U10C C12G | 1.29
U7G U8C G9A U10C C12A | 1.18
U7G U8C G9A U10C C12U | 1.37
U7G U8C G9A U10G C13G | 1.19
U7G U8C G9A U10G C13A | 1.28
U7G U8C G9A U10G C13U | 1.26
U7G U8C G9A U10A U11A C12U | 1.4
U7G U8C G9A U10A U11A C12G | 1.22
U7G U8C G9A U10A U11A C12A | 1.28
U7G U8C G9A U10C U11A C12A C13U | 1.14
U7G U8C G9A U10C U11A C12A C13G | 1.11
U7G U8C G9A U10C U11A C12A C13A | 1.15
U7G U8C G9A U10C | 3.27
U7G U8C G9A U10A | 3.78
U7G U8C G9A U10G | 3.04

Variant | aptazyme ON/OFF ratio
U7G U8C G9A U10A U11C C12G C13G | 1.03
U7G U8C G9A U10A U11C C12G C13U | 1.09
U7G U8C G9A U10A U11C C12G C13A | 1.08
U7G U8C G9A U10G U11C C12G C13U | 1.18
U7G U8C G9A U10G U11C C12G C13G | 1.02
U7G U8C G9A U10G U11C C12G C13A | 1.14
U7G U8C G9A U10C C12A C13U | 1.19
U7G U8C G9A U10C C12A C13G | 1.14
U7G U8C G9A U10C C12A C13A | 1.12
U7G U8A U10G U11A C12A C13A | 1.47
U7G U8A U10G U11A C12A C13G | 1.15
U7G U8A U10G U11A C12A C13U | 1.12
U7G U8C G9A U10C U11A C12U C13A | 1.08
U7G U8C G9A U10C U11A C12U C13U | 1.02
U7G U8C G9A U10C U11A C12U C13G | 1.06
U7G U8C | 1.32
U7G U8A U10C U11G C12U C13G | 1.29
U7G U8A U10C U11G C12U C13U | 1.42
U7G U8A U10C U11G C12U C13A | 1.2
U7G U8A U10G U11C C12A | 1.48
U7G U8A U10G U11C C12G | 1.02
U7G U8A U10G U11C C12U | 1.27
U7G U8C G9A U10C U11G C13A | 1.16
U7G U8C G9A U10C U11G C13G | 1.27

Variant | aptazyme ON/OFF ratio
U7G U8C G9A U10C U11G C13U | 1.24
U7G U8C G9A C12U C13U | 1.03
U7G U8C G9A C12U C13A | 1.03
U7G U8C G9A C12U C13G | 1.02
U7G U8C G9A U10C U11A C13A | 1.18
U7G U8C G9A U10C U11A C13G | 1.07
U7G U8C G9A U10C U11A C13U | 1.28
U7G U8C G9A U10A U11G C12U C13G | 1.2
U7G U8C G9A U10A U11G C12U C13U | 1.21
U7G U8C G9A U10A U11G C12U C13A | 1.16
U7G U8A U10C U11G C12A | 1.27
U7G U8A U10C U11G C12G | 1.49
U7G U8A U10C U11G C12U | 1.32
U7G U8C G9A C12A C13U | 1.06
U7G U8C G9A C12A C13A | 1.08
U7G U8C G9A C12A C13G | 1.05
U7G U8C G9A U10A U11C C12A | 1.31
U7G U8C G9A U10A U11C C12U | 1.11
U7G U8C G9A U10A U11C C12G | 1.13
U7G U8A U10G U11C C13G | 1.16
U7G U8A U10G U11C C13U | 1.5
U7G U8A U10G U11C C13A | 1.21
U7G U8C C12A C13U | 1.08
U7G U8C C12A C13A | 1.13

Variant | aptazyme ON/OFF ratio
U7G U8C C12A C13G | 1.1
U7G U8C G9A U10C U11G C12U C13A | 1.26
U7G U8C G9A U10C U11G C12U C13U | 1.18
U7G U8C G9A U10C U11G C12U C13G | 1.22
U7G U8C G9A U10C U11G C12G C13G | 1.08
U7G U8C G9A U10C U11G C12G C13A | 1.08
U7G U8C G9A U10C U11G C12G C13U | 1.05
U7G U8C G9A U10C U11C C12G C13G | 1.05
U7G U8C G9A U10C U11C C12G C13U | 1.09
U7G U8C G9A U10C U11C C12G C13A | 1.15
U7G U8A U10G U11G | 1.59
U7G U8A U10G U11A | 2.15
U7G U8A U10G U11C | 2.11
U7G U8C G9A U10C U11C C12U C13G | 1.04
U7G U8C G9A U10C U11C C12U C13A | 1.04
U7G U8C G9A U10C U11C C12U C13U | 1.06
U7G U8A U11G C12U C13A | 1.34
U7G U8A U11G C12U C13G | 1.26
U7G U8A U11G C12U C13U | 1.17
U7G U8C G9A U10C U11A C12G C13G | 1.21
U7G U8C G9A U10C U11A C12G C13A | 1.06
U7G U8C G9A U10C U11A C12G C13U | 1.33
U7G U8C G9A U10A U11G C12A C13A | 1.06
U7G U8C G9A U10A U11G C12A C13U | 1.09

Variant | aptazyme ON/OFF ratio
U7G U8C G9A U10A U11G C12A C13G | 1.12
U7G U8A U10G U11A C12G C13G | 1.25
U7G U8A U10G U11A C12G C13A | 1.11
U7G U8A U10G U11A C12G C13U | 1.23
U7G U8C G9A U10A C12G C13U | 1.15
U7G U8C G9A U10A C12G C13G | 1.08
U7G U8C G9A U10A C12G C13A | 1.07
U7G U8A U11A C12U C13A | 1.31
U7G U8A U11A C12U C13G | 1.26
U7G U8A U11A C12U C13U | 1.36
U7G U8C C12U C13U | 1.07
U7G U8C C12U C13G | 1.19
U7G U8C C12U C13A | 1.05
U7G U8C G9A U10A C12A C13A | 1.23
U7G U8C G9A U10A C12A C13U | 1.2
U7G U8C G9A U10A C12A C13G | 1.13
U7G U8A U11G C12A | 1.45
U7G U8A U11G C12G | 1.33
U7G U8A U11G C12U | 1.25
U7G U8A U10G U11G C12U C13U | 1.65
U7G U8A U10G U11G C12U C13A | 1.44
U7G U8A U10G U11G C12U C13G | 1.16
U7G U8C C12G C13U | 1.19
U7G U8C C12G C13G | 1.08

Variant | aptazyme ON/OFF ratio
U7G U8C C12G C13A | 1.08
U7G U8C G9A U10C U11G C12A | 1.07
U7G U8C G9A U10C U11G C12U | 1.37
U7G U8C G9A U10C U11G C12G | 1.12
U7G U8C G9A U10A U11G C13A | 1.13
U7G U8C G9A U10A U11G C13U | 1.23
U7G U8C G9A U10A U11G C13G | 1.04
U7G U8A U11A C12A | 1.25
U7G U8A U11A C12G | 1.22
U7G U8A U11A C12U | 1.43
U7G U8A U10C U11G | 2.09
U7G U8A U11C C12G C13U | 1.32
U7G U8A U11C C12G C13G | 1.2
U7G U8A U11C C12G C13A | 1.22
U7G U8C G9A U10C C12U C13A | 1.15
U7G U8C G9A U10C C12U C13G | 1.11
U7G U8C G9A U10C C12U C13U | 1.08
U7G U8A U10G U11G C13G | 1.43
U7G U8A U10G U11G C13U | 1.42
U7G U8A U10G U11G C13A | 1.28
U7G U8C G9A U10G U11A C12G C13A | 1.09
U7G U8C G9A U10G U11A C12G C13U | 1.12
U7G U8C G9A U10G U11A C12G C13G | 1.24
